Laboratory results: patent US20230203146A1 (Boehringer Ingelheim, published 2023)
Like-named read-outs stand apart in the source and are kept apart here.

T1: FLAG-tagged recombinant human Ang1 (Alexis Biochemicals) (human, UniProt Q15389 20-498, limits assumed)
T1 construct: Bought reagent; also called hAng1; FLAG-hAng1
T1 sequence (looked up): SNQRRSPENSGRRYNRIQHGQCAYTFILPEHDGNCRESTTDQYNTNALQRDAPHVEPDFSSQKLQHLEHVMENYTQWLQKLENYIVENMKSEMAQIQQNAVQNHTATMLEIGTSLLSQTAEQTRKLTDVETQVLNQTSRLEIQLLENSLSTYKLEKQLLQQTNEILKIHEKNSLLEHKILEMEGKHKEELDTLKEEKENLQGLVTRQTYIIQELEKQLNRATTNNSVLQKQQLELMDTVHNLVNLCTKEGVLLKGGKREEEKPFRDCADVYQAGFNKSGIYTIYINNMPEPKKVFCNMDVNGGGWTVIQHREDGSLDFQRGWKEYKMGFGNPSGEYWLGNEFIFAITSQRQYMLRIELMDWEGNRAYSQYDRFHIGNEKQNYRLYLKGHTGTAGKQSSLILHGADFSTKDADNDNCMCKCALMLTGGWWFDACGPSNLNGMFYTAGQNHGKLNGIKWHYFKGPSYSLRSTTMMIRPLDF

T2: FLAG-tagged mouse Ang2 (mouse, UniProt O35608 19-496)
T2 construct: N-terminally FLAG-tagged, conditioned medium of HEK293T cells; also called mAng2; FLAG-mAng2
T2 sequence: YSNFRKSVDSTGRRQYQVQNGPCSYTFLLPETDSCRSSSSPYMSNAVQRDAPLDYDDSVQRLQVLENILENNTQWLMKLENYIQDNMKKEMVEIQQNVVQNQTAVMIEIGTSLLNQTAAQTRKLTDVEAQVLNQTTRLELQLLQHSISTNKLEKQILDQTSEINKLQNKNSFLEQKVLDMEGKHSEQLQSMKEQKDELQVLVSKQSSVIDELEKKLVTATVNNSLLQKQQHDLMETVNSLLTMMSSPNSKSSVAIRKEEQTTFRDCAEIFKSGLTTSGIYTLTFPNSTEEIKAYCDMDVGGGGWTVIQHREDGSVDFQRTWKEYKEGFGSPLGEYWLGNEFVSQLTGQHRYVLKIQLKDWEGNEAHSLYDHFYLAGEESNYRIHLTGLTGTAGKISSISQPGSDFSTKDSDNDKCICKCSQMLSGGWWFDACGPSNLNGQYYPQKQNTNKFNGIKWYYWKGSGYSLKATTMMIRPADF

T3: FLAG-tagged cynomolgus Ang2 (cynomolgus, UniProt O15123 19-496 (human entry), limits assumed)
T3 construct: N-terminally FLAG-tagged, conditioned medium of HEK293T cells; also called cAng2; FLAG-cAng2
T3 chain: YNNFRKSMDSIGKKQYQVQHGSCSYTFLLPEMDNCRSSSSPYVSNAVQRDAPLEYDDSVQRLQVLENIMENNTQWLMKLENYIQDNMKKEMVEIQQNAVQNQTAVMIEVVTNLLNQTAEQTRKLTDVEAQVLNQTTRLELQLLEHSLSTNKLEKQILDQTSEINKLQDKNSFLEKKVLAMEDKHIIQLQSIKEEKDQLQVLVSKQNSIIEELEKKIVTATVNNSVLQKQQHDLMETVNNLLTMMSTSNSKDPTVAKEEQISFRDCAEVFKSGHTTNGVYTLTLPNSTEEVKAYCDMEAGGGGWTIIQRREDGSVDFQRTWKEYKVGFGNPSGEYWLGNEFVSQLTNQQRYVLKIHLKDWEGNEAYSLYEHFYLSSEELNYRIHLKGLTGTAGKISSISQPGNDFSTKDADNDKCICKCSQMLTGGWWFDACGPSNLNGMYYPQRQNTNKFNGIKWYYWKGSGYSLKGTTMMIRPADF

T4: recombinant cynomolgus Ang2-FLD (cynomolgus, UniProt A0A2K5VNX6 275-496)
T4 construct: domain: FLD; also called cyno Ang2-FLD
T4 sequence: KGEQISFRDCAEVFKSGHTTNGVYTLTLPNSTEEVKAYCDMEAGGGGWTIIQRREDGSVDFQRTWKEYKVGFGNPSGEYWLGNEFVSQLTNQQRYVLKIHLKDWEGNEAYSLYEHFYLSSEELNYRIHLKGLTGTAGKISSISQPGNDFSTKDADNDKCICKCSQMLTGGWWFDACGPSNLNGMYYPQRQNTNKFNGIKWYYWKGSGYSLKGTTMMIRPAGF

T5: recombinant mouse Ang2-FLD (mouse, UniProt O35608 275-496, limits assumed)
T5 construct: domain: FLD
T5 sequence (looked up): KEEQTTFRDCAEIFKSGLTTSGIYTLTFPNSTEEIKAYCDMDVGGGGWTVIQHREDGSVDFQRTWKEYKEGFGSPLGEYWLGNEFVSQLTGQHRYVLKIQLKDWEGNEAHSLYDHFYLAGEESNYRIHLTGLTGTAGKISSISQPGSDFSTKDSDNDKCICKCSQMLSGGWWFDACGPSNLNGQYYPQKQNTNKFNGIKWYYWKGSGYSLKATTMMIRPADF

T6: recombinant rat Ang2-FLD (rat, UniProt O35462 275-496, limits assumed)
T6 construct: domain: FLD
T6 sequence (looked up): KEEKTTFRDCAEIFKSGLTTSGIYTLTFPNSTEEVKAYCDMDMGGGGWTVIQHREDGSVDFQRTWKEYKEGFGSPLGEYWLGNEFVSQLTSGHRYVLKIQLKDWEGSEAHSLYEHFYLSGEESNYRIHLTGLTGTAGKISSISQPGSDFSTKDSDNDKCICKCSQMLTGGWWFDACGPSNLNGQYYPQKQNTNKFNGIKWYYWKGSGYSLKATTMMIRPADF

T7: recombinant human Ang2-FLD (human, UniProt O15123 275-496, limits assumed)
T7 construct: domain: FLD
T7 sequence (looked up): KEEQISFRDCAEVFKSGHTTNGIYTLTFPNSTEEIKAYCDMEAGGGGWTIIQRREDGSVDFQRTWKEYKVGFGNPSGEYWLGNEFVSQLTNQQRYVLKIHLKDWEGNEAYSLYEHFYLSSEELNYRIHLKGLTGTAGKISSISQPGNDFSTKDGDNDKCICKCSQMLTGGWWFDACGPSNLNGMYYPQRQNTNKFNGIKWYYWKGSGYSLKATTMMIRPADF


Tests used:
[1] = molecular target: T1, FLAG-tagged recombinant human Ang1 …; experiment: competition ELISA, periplasmic extract, FLAG-hAng1 on hTie2/Fc
Method: In brief, human Tie2/Fc chimera (R&D Systems, Minneapolis, Minn., USA) is biotinylated using N-hydroxysulfosuccinimide ester of biotin (Thermo Fisher Scientific, Rockford, Ill., USA). […] To this mixture, the Acceptor beads and 0.3 nM biotinylated human Tie2/Fc chimeras are added and further incubated for 2 hours at room temperature. Finally, streptavidin conjugated Donor beads (Perkin Elmer, Waltham, Mass., US) are added and the mixture is incubated for an additional 2 hours at room temperature. Assay buffer is PBS+0.03% Tween-20+0.1% BSA. Fluorescence is measured using the Envision Multilabel Plate reader (Perkin Elmer, Waltham, Mass., USA) using an excitation wavelength of 680 nm and an emission wavelength of 520 nm. […] In brief, human or mouse Tie2/Fc chimera (R&D Systems, Minneapolis, Minn., USA) are immobilized at 2 μg/mL overnight at 4° C. in a 96-well MaxiSorp plate (Nunc, Wiesbaden, Germany). Wells are blocked with a 1% casein solution. […] This mixture is added to the Tie2/Fc coated well and incubated for 2 hours at room temperature. Residual binding of Ang is detected using HRP-conjugated anti-FLAG M2 antibody (Sigma, St Louis, Mo., USA).

FLAG-tagged mouse Ang2 [2] = molecular target: T2, FLAG-tagged mouse Ang2; experiment: competition ELISA: FLAG-mAng2 binding to coated mTie2-Fc
Method: (§1) In brief, 2 μg/mL of recombinant mouse Tie2-Fc or cyno Tie2-Fc is coated overnight at 4° C. in a 96-well MaxiSorp plate (Nunc, Wiesbaden, Germany). Coated wells are blocked with a 1% casein solution.

[3] = molecular target: T3, FLAG-tagged cynomolgus Ang2; experiment: competition ELISA: FLAG-cAng2 binding to coated cTie2-Fc
Method: as §1

[4] = molecular target: T4, recombinant cynomolgus Ang2-FLD; experiment: SPR (Biacore T100), VHH immobilized, Ang2-FLD injected
Method: (§2) In brief, VHH and benchmark compounds are immobilized on a CM5 chip via amine coupling. […] Ang2-FLD species are allowed to associate for 2 min and to dissociate for 20 min at a flow rate of 45 μL/min. In between injections, the surfaces are regenerated with a 10 sec pulse of 25 mM NaOH and 60 sec stabilization period. Association/dissociation data are evaluated by fitting a 1:1 interaction model (Langmuir binding). The affinity constant KD is calculated from resulting association and dissociation rate constants kₐ and kd and are depicted in Table 8.

[5] = molecular target: T5, recombinant mouse Ang2-FLD; experiment: as above
Method: as §2

recombinant rat Ang2-FLD = molecular target: T6, recombinant rat Ang2-FLD; experiment: as above
Method: as §2

[6] = molecular target: T7, recombinant human Ang2-FLD; experiment: as above
Method: as §2

[7] = molecular target: T3, FLAG-tagged cynomolgus Ang2; experiment: competition ELISA: FLAG-cAng2 binding to coated cTie2-Fc
Method: as §1

FLAG-tagged mouse Ang2 [8] = molecular target: T2, FLAG-tagged mouse Ang2; experiment: competition ELISA: FLAG-mAng2 binding to coated mTie2-Fc; remark: listed apart in the source
Method: as §1

% inh [1] [%] | IC50 (FLAG-tagged mouse Ang2 [2]) [nM] | IC50 [3] [nM] | Kd [4] [nM] | koff [4] [s⁻¹] | kon [4] [M⁻¹ s⁻¹] | Kd [5] [nM] | koff [5] [s⁻¹] | kon [5] [M⁻¹ s⁻¹] | Kd (recombinant rat Ang2-FLD) [nM] | koff (recombinant rat Ang2-FLD) [s⁻¹] | kon (recombinant rat Ang2-FLD) [M⁻¹ s⁻¹] | Kd [6] [nM] | koff [6] [s⁻¹] | kon [6] [M⁻¹ s⁻¹] | IC50 [7] [nM] | IC50 (FLAG-tagged mouse Ang2 [8]) [nM] | Binder
4 | – | – | – | – | – | – | – | – | – | – | – | – | – | – | – | – | VHH 1E01 (VHH, Tested as periplasmic extract; also called 001E01; not shown: C-terminal c-myc tag and His6 tag) VHH: EVQLVESGGGLVQPGGSLRLSCVHSGTISSTHAMGWYRQAPGKQREHVATFTNRGSTYYAGSVKGRFTISRDNAKNTMYLQMNSLKPEDTAVYYCNTGPYWGQGTQVTVSS
3 | – | – | – | – | – | – | – | – | – | – | – | – | – | – | – | – | VHH 12A08 (VHH, Tested as periplasmic extract; also called 012A08; not shown: C-terminal c-myc tag and His6 tag) VHH: EVQLVESGRGLVQAGGSLRLSCAASGSIFSINAMLWYRQAPGKQRELVAAITSGGSTNYADSVKGRFTISRDNAKNTVYLQMNSLKPEDTAVYYCAADSDYSSDYYYWGQGTQVTVSS
– | 0.2 | 0.39 | 0.05 | 4.9e-05 | 970000 | 0.17 | 7.3e-05 | 420000 | 0.29 | 5.4e-05 | 180000 | 0.064 | 4e-05 | 620000 | – | – | VHH 00928 (VHH, not shown: small tags and cut ends) VHH: EVQLVESGGGLVQPGGSLRLSCAASGFALDYYAIGWFRQAPGKEREGVSCISSSGGITYYADSVKGRFTISRDNSKNTVYLQMNSLRPEDTAVYYCATDSGGYIDYDCSGLGYDYWGQGTLVTVSS
4 | – | – | – | – | – | – | – | – | – | – | – | – | – | – | – | – | VHH 25B01 (VHH, Tested as periplasmic extract; also called 025B01; not shown: C-terminal c-myc tag and His6 tag) VHH: EVQLVESGGGLVQAGGSLRLSCAASGFTFDDYAIGWFRQAPGKEREGVSCISSSDGSTYYADSVKGRFTISSDNAKNTVYLQMNSLKPEDTAVYYCAAAWGASRLPIGTMPPYEYDYWGQGTQVTVSS
– | – | – | 2.3 | 0.025 | 1.1e+07 | 7.5 | 0.025 | 3.3e+06 | 42 | 0.049 | 1.2e+06 | 6.6 | 0.027 | 4e+06 | 37 | 27 | VHH 00921 (VHH, not shown: small tags and cut ends) VHH: EVQLVESGGGLVQPGGSLRLSCAASGFTFDDYALGWFRQAPGKEREGVSCIRCSGGSTYYADSVKGRFTISSDNSKNTVYLQMNSLRPEDTAVYYCAASIVPRSKLEPYEYDAWGQGTLVTVSS
